{
  "source": "patent US20230348572A1",
  "target": "RBD (amino acids 340-538 NITN.GPKK) expressed on the surface of MDCK-SIAT1 cells (SARS-CoV-2) (UniProt P0DTC2)",
  "data": [
    {"substance": "H11-D4-Fc (Fc fusion)", "values": [
      {"measurement": "IC50", "value": 28, "unit": "nM"}
    ]}
  ]
}
